Results reported in US20240182575A1 (Ablynx, published 2024).

How the values were obtained:
[1] = molecular target: T1, HuCD80-HuIgG1 (fusion protein of the extracellular part of human CD80 and human Fc gamma 1, R&D Systems Cat … (human, UniProt P33681 35-242)); test: SPR, Biacore 3000, antigen amine-coupled
T1 construct: extracellular domain; bought, produced in NS0 cells; also called CD80-IgG1; CD80-Ig; not shown: human Fc gamma 1
T1 sequence (looked up): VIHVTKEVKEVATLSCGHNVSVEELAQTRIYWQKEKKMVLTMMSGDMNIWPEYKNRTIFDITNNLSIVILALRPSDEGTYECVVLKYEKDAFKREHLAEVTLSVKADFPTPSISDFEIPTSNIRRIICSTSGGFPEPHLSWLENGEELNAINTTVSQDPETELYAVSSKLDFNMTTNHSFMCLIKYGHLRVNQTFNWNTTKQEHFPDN
Method: (§1) Affinity constants (Kd) of individual purified Nanobody clones were determined by surface plasmon resonance on a Biacore 3000 instrument. […] Remaining reactive groups were inactivated using ethanolamine. Nanobody binding was assessed at 1 and 0.1 microM. Each sample was injected for 4 min at a flow rate of 45 μl/min to allow for binding to chip-bound antigen. Next, binding buffer without Nanobody was sent over the chip at the same flow rate to allow for dissociation of bound Nanobody. After 2 min, remaining bound analyte was removed by injecting regeneration solution (50 mM NaOH or Glycine/HCl pH 1.5). Binding curves obtained at different concentrations of Nanobody were used to calculate Kd values.

[2] = molecular target: T2, HuCD86-HuIgG1 (fusion protein of the extracellular part of human CD86 and human Fc gamma 1, R&D Systems Cat … (human, UniProt P42081 24-247)); test: SPR, Biacore 3000, antigen amine-coupled
T2 construct: extracellular domain; bought; also called CD86-IgG1; CD86-Ig; not shown: human Fc gamma 1
T2 sequence (looked up): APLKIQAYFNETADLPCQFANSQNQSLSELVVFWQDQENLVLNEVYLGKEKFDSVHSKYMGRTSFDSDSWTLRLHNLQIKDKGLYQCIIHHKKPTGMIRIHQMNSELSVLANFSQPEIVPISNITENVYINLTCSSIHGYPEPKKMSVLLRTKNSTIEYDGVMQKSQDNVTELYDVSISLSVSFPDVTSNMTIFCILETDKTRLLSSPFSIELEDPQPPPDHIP
Method: as §1

[3] = molecular target: T3, HuCD80-MuIgG2a (extracellular (173aa) domain of human CD80 fused to murine IgG2a Fc+hinge (232 aa), Ancell … (human; mouse, UniProt P33681 35-242); test: competition ELISA, coated CD80-Ig; blocked ligand CD28-Ig
T3 construct: extracellular domain; bought, produced in CHO cells; also called B7-1-muFc; not shown: murine IgG2a Fc+hinge (232 aa)
T3 sequence (looked up): T1 sequence (looked up)
Method: Inhibition was determined based on OD values of controls having received no Nanobody (high control) or no CD28- or CTLA4-HuIgG1 fusion protein (low control).

[4] = molecular target: T4, HuCD86-MuIgG2a (fusion protein of the extracellular part of human CD86 and mouse Fc gamma 2a, Ancell Cat … (human; mouse, UniProt P42081 24-247; P01863 98-330 = IgG part); test: competition ELISA, coated CD86-Ig; blocked ligand CD28-Ig
T4 construct: extracellular domain;domain: Fc; bought; also called B7-2

B1: CD8086PMP1E11 (VHH)
VHH: EVQLVESGGGLVQPGGSLRLSCAASGFTLDYSAIGWFRQAPGKEREGVSYISSSDGSTYYADSVEGRFTISRDNAKNTLYLQMNSLKPEDTAVYYCAAGGPFTVSTMPWLANYWGQGTQVTVSS
notes: not shown: C-terminal c-myc tag and His6 tag
Kd [1]: 23 nM
koff [1]: 0.0004 s⁻¹
kon [1]: 18000 M⁻¹ s⁻¹
Kd [2]: 553 nM
koff [2]: 0.002 s⁻¹
kon [2]: 3600 M⁻¹ s⁻¹
IC50 (read off the curve) [3]: ~400 nM
IC50 (read off the curve) [4]: ~10 nM
